Target: the molecule itself
Assay: cryo-EM structure

B1: mouse TRPC4 (residues a.a. 1-758, excluding a.a. 759-974) (natural protein, UniProt Q9QUQ5 1-758, looked up)
chain: MAQFYYKRNVNAPYRDRIPLRIVRAESELSPSEKAYLNAVEKGDYASVKKSLEEAEIYFKININCIDPLGRTALLIAIENENLELIELLLSFNVYVGDALLHAIRKEVVGAVELLLNHKKPSGEKQVPPILLDKQFSEFTPDITPIILAAHTNNYEIIKLLVQKGVSVPRPHEVRCNCVECVSSSDVDSLRHSRSRLNIYKALASPSLIALSSEDPFLTAFQLSWELQELSKVENEFKSEYEELSRQCKQFAKDLLDQTRSSRELEIILNYRDDNSLIEEQSGNDLARLKLAIKYRQKEFVAQPNCQQLLASRWYDEFPGWRRRHWAVKMVTCFIIGLLFPVFSVCYLIAPKSPLGLFIRKPFIKFICHTASYLTFLFLLLLASQHIDRSDLNRQGPPPTIVEWMILPWVLGFIWGEIKQMWDGGLQDYIHDWWNLMDFVMNSLYLATISLKIVAFVKYSALNPRESWDMWHPTLVAEALFAIANIFSSLRLISLFTANSHLGPLQISLGRMLLDILKFLFIYCLVLLAFANGLNQLYFYYEETKGLSCKGIRCEKQNNAFSTLFETLQSLFWSIFGLINLYVTNVKAQHEFTEFVGATMFGTYNVISLVVLLNMLIAMMNNSYQLIADHADIEWKFARTKLWMSYFEEGGTLPTPFNVIPSPKSLWYLVKWIWTHLCKKKMRRKPESFGTIGRRAADNLRRHHQYQEVMRNLVKRYVAAMIREAKTEEGLTEENVKELKQDISSFRFEVLGLLRGSK
In the case of B1, the “stoichiometry N” value is reported as 4.

Source: doi:10.1101/282715 (bioRxiv, 2018)
